This is an account of results in patent publication US20080293915A1 (published 2008).

B1: Phage-displayed 12-mer peptide HETAVRQTSPPM (Group A; Phage ID 9, 20, 22) (peptide)
peptide: HETAVRQTSPPM
modifications: not fully specified
notes: no synthetic peptide was tested; also called Phage ID 20; Phage ID 22; not shown: protein III of bacteriophage M13 (Ph.D-12 library, New England Biolabs); any li
B2: Phage-displayed 12-mer peptide HETACRQTSPPM (Group A; Phage ID 11) (peptide)
peptide: HETACRQTSPPM
modifications: not fully specified
notes: not shown: protein III of bacteriophage M13 (Ph.D-12 library, New England Biolabs); any li
B3: Phage-displayed 12-mer peptide HPKQSLHFPDLS (Group B; Phage ID 6) (peptide)
peptide: HPKQSLHFPDLS
modifications: not fully specified
notes: as for B2
B4: Phage-displayed 12-mer peptide HPYDSLHFPRMS (Group B; Phage ID 4, 6-1) (peptide)
peptide: HPYDSLHFPRMS
modifications: not fully specified
notes: also called Phage ID 6-1; not shown: protein III of bacteriophage M13 (Ph.D-12 library, New England Biolabs); any li

Ends that are not written are not given here.

For this assay, the target named is T1, human GABAC receptor rho1 subunit expressed on stably transfected neuroblastoma cells (human, UniProt P24046 22-479).
T1 construct: whole, on cells; the pentameric state on these cells was not measured; also called GABAC human ρ1; GABAC-transfected neuroblastoma cells
T1 sequence (P24046 22-479): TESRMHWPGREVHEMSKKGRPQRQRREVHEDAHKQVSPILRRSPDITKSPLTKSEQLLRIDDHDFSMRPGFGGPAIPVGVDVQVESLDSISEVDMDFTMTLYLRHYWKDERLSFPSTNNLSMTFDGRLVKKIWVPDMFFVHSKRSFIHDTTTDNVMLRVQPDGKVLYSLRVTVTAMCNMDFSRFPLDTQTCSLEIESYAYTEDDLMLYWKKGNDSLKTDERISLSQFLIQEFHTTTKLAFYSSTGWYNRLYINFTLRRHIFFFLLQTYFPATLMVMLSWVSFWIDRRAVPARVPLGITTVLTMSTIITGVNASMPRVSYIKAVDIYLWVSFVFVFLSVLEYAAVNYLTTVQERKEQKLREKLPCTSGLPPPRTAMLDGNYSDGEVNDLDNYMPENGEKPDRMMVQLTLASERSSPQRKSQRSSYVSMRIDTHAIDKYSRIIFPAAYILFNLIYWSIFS
In words: phage display panning (Ph.D-12 library): subtraction on non-transfected neuroblastoma cells, then three rounds on GABAC-transfected neuroblastoma cells; clones sequenced. An excerpt:
Screening of phage display peptides with GABAC-expressing cells MAY employ phage display to identify 12-mer peptide sequences that can serve as an NNP anchoring element. GABAC-transfected neuroblastoma cells have yielded sequences of peptides that preferentially bind to GABAC-expressing cells. For phage selection, we used a screening method similar to that previously used to identify phages that bind to ErbB receptors (Stortelers et al., 2003). Briefly, 2×10¹⁰ phages (Ph.D-12 library from New England Biolabs, MA) were incubated with control, non-transfected neuroblastoma cells in binding buffer (PBS containing 0.2% BSA, 0.05% Tween 20) for 2 hr. Non-bound phages were collected and then incubated with GABAC-transfected neuroblastoma cells for 2 hr. After rinsing several times with washing buffer (0.05% Tween 20 in PBS), bound phages were eluted using an acidic glycine buffer (50 mM glycine, 150 mM NaCl, pH 2.7) and neutralized with 1 M Tris, pH 8. After phage titration of the eluate, we performed a second and then a third round of bio-panning using the GABAC-transfected neuroblastoma cells. After the third round of panning, DNA isolated from individual phage plaques was sequenced. […] The 7 illustrated sequences represent individual phage clones from a total of 36 sequenced clones.
B1: the binding result is “binds”. As for B2, the binding result is reported as “binds”. For the molecule B3, the binding result is reported as “binds”. Take B4: the binding result is reported as “binds”.
